# Substitutions are numbered along the chain they refer to.
# B1: v36180-MC-GGFG-AM-Compound 139 (DAR8) (antibody, human IgG1, kappa, V domains shown)
# VH: EVQLVQSGAEVKKPGSSVKVSCKASGYTFTDYEMHWVRQAPGQGLEWIGAIDPETGDTAYNQKFKGRATLTADKSTSTAYMELSSLRSEDTAVYYCTRYFSFAYWGQGTLVTVSS
# VL: DVQMTQSPSSVSASVGDRVTITCRSSQSLRHSNGNTYLQWYQQKPGKAPKLLIYKVSNRFSGVPSRFSGSGSGTDFTLTISSLQPEDFATYFCYQSKHVPYTFGQGTKVEIKR
# modifications: MC-GGFG-AM-Compound 139 drug-linker on reduced cysteines, sites not stated; MC-GGFG-AM-Compound 139 drug-linker on reduced cysteines, sites not stated; DAR 8 for the whole antibody
# B2: v36180-MC-GGFG-AM-Compound 141 (DAR8) (antibody, human IgG1, kappa, V domains shown)
# VH: B1 VH
# VL: B1 VL
# modifications: MC-GGFG-AM-Compound 141 drug-linker on reduced cysteines, sites not stated; MC-GGFG-AM-Compound 141 drug-linker on reduced cysteines, sites not stated; DAR 8 for the whole antibody
# B3: v36180-MC-GGFG-Compound 141 (DAR8) (antibody, human IgG1, kappa, V domains shown)
# VH: B1 VH
# VL: B1 VL
# modifications: MC-GGFG-Compound 141 drug-linker on reduced cysteines, sites not stated; MC-GGFG-Compound 141 drug-linker on reduced cysteines, sites not stated; DAR 8 for the whole antibody
# B4: v40218, H18L6_LC_N33H mAb (antibody, human IgG1, kappa, V domains shown)
# VH: B1 VH with E1Q, R38K, Q43H, R67K, K74T
# VL: EIVLTQSPATLSLSPGERATISCRSSQSLRHSHGNTYLQWYQQKPGQAPRLLIYKVSNRFSGVPARFSGSGSGTDFTLTISSLEPEDFAVYFCYQSKHVPYTFGGGTKVEIKR
# notes: no number given for this variant
# B5: v40214, H18L6_LC_N33T mAb (antibody, human IgG1, kappa, V domains shown)
# VH: B1 VH with E1Q, R38K, Q43H, R67K, K74T
# VL: B4 VL with H33T
# notes: as for B4
# B6: v40209, H18L6_LC_G34T mAb (antibody, human IgG1, kappa, V domains shown)
# VH: B1 VH with E1Q, R38K, Q43H, R67K, K74T
# VL: B4 VL with H33N, G34T
# notes: as for B4
# B7: v40208, H18L6_LC_G34Q mAb (antibody, human IgG1, kappa, V domains shown)
# VH: B1 VH with E1Q, R38K, Q43H, R67K, K74T
# VL: B4 VL with H33N, G34Q
# B8: v40215, H18L6_LC_N33V mAb (antibody, human IgG1, kappa, V domains shown)
# VH: B1 VH with E1Q, R38K, Q43H, R67K, K74T
# VL: B4 VL with H33V
# notes: as for B4
# B9: v40210, H18L6_LC_G34S mAb (antibody, human IgG1, kappa, V domains shown)
# VH: B1 VH with E1Q, R38K, Q43H, R67K, K74T
# VL: B4 VL with H33N, G34S
# notes: as for B4
# B10: v40211, H18L6_LC_G34V mAb (antibody, human IgG1, kappa, V domains shown)
# VH: B1 VH with E1Q, R38K, Q43H, R67K, K74T
# VL: B4 VL with H33N, G34V
# notes: as for B4
# B11: v40206, H18L6_LC_G34R mAb (antibody, human IgG1, kappa, V domains shown)
# VH: B1 VH with E1Q, R38K, Q43H, R67K, K74T
# VL: B4 VL with H33N, G34R
# B12: v40212, H18L6_LC_G34A mAb (antibody, human IgG1, kappa, V domains shown)
# VH: B1 VH with E1Q, R38K, Q43H, R67K, K74T
# VL: B4 VL with H33N, G34A
# notes: as for B4
# B13: v40221, H18L6_LC_N33S mAb (antibody, human IgG1, kappa, V domains shown)
# VH: B1 VH with E1Q, R38K, Q43H, R67K, K74T
# VL: B4 VL with H33S
# notes: as for B4
# B14: v40219, H18L6_LC_N33A mAb (antibody, human IgG1, kappa, V domains shown)
# VH: B1 VH with E1Q, R38K, Q43H, R67K, K74T
# VL: B4 VL with H33A
# notes: as for B4
# B15: v40217, H18L6_LC_N33K mAb (antibody, human IgG1, kappa, V domains shown)
# VH: B1 VH with E1Q, R38K, Q43H, R67K, K74T
# VL: B4 VL with H33K
# notes: as for B4
# B16: v40216, H18L6_LC_N33R mAb (antibody, human IgG1, kappa, V domains shown)
# VH: B1 VH with E1Q, R38K, Q43H, R67K, K74T
# VL: B4 VL with H33R
# notes: as for B4
# B17: v40220, H18L6_LC_N33Q mAb (antibody, human IgG1, kappa, V domains shown)
# VH: B1 VH with E1Q, R38K, Q43H, R67K, K74T
# VL: B4 VL with H33Q
# notes: as for B4
# B18: v40213, H18L6_LC_N33E mAb (antibody, human IgG1, kappa, V domains shown)
# VH: B1 VH with E1Q, R38K, Q43H, R67K, K74T
# VL: B4 VL with H33E
# notes: as for B4
# B19: v40207, H18L6_LC_G34K mAb (antibody, human IgG1, kappa, V domains shown)
# VH: B1 VH with E1Q, R38K, Q43H, R67K, K74T
# VL: B4 VL with H33N, G34K
# B20: M3-H18L6 (WT) mAb, v38592 (antibody, human IgG1, kappa)
# heavy: not shown
# light: EIVLTQSPATLSLSPGERATISCRSSQSLRHSNGNTYLQWYQQKPGQAPRLLIYKVSNRFSGVPARFSGSGSGTDFTLTISSLEPEDFAVYFCYQSKHVPYTFGGGTKVEIKRTVAAPSVFIFPPSDEQLKSGTASVVCLLNNFYPREAKVQWKVDNALQSGNSQESVTEQDSKDSTYSLSSTLTLSKADYEKHKVYACEVTHQGLSSPVTKSFNRGEC
# notes: Full-size IgG1/kappa; also called wild-type M3-H18L6; M3-H18L6 with HC C-terminal lysine
# Experiments:
# [1] = target: human GPC3 on cells (human, UniProt P51654 25-554); test: cell-based or functional assay
# [2] = target: T1, recombinant cynomolgus GPC3 (glypican-3) (cynomolgus monkey, UniProt A0A2K5VK50 24-558); test: SPR; Kd on human GPC3 divided by Kd on cynomolgus GPC3
# T1 construct: also called cynoGPC3
# Experimental: (§1) CM5 Series S sensor chip, Biacore™ amine coupling kit (NHS, EDC and 1 M ethanolamine), and 10 mM sodium acetate buffers were purchased from Cytiva Life Sciences (Mississauga, ON, Canada). PBS running buffer with 0.05% Tween20 (PBST) was purchased from Teknova Inc. (Hollister, CA). Antigens: recombinant human and cynomolgus GPC3 was purchased from ACROBiosystems (Newark, DE) and SEC purified on a Superdex 200 10/300 GL column (Cytiva) in PBST running buffer at 0.8 mL/min.
# (§2) Screening of the antibodies for binding to GPC3 antigen was conducted via anti-Fc capture of antibodies, followed by the injection of five concentrations of GPC3. The anti-Fc surface was prepared on a CM5 Series S sensor chip by standard amine coupling methods as described by the manufacturer (Cytiva Life Sciences, Mississauga, ON, Canada). […] Approximately 150-400 RUs of each antibody (5-20 μg/mL) were captured on the goat anti-human IgG surface by injecting at 10 μL/min for 60s. Using single-cycle kinetics, five concentrations of a two-fold dilution series of human or cynomolgus GPC3 starting at 40 nM, 20 nM, 10 nM, or 5 nM depending on the antibody, with a blank buffer control were injected at 20 μL/min for 180s of contact time, followed by 180 s dissociation phase, resulting in sensorgrams with a buffer blank reference. The anti-Fc surface was regenerated to prepare for the next injection cycle by one pulse of 10 mM glycine/HCl pH 1.5 for 120 s at 40 μL/min. Blank-subtracted sensorgrams were analyzed and fit to the 1:1 Langmuir binding model using Biacore™ T200 Evaluation Software v3.2.
# [3] = target: T2, recombinant human GPC3 (glypican-3) (human, UniProt P51654 25-559); test: SPR (Biacore T200), antibody captured by anti-Fc, GPC3 injected
# T2 construct: also called huGPC3; hGPC3
# Experimental: as §1, §2
# [4] = target: T2, recombinant human GPC3 (glypican-3); test: SPR (Biacore T200), antibody captured by anti-Fc, GPC3 injected, single-cycle kinetics, 1:1 fit; average
# Experimental: as §1, §2
# [5] = target: T1, recombinant cynomolgus GPC3 (glypican-3); test: as above
# Experimental: as §1, §2
# [6] = target: T3, human glypican-3 (GPC3) (human, UniProt P51654 25-554); test: cell-based or functional assay
# [7] = target: T3, human glypican-3 (GPC3); test: cell-based or functional assay; remark: listed apart in the source
# [8] = target: T3, human glypican-3 (GPC3); test: flow cytometry on JHH-5 cells (GPC3-mid);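 note: antibody binding to cells at 4 °C for 24 h, detected with anti-human AF647 as geometric mean fluorescence of live cells versus antibody concentration, fitted by specific binding with Hill slope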
# Experimental: (§3) Briefly, cells were seeded at 50,000 cells/well in V-bottom 96-well plates and treated with antibody for 24 hours at 4° C. to prevent internalization. […] Following incubation and washing, fluorescence was detected by flow cytometry on a BD LSRFortessa™ Cell Analyzer (BD Biosciences, Franklin Lake, NJ) with 1,000 minimum events collected per well. AF647/APC-A GeoMean (fluorescence signal geometric mean, proportional to anti-Human AF647 binding) in live cell population was plotted against antibody concentration using GraphPad Prism Version 9 (GraphPad Software, San Diego, CA). The Bmax, Curve Hill Slope (h) and Kd values were derived from the “Specific binding with Hill slope” nonlinear regression curve fit in GraphPad Prism Version 9.
# [9] = target: T3, human glypican-3 (GPC3); test: flow cytometry on JHH-7 cells (GPC3-high);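 note: antibody binding at 4 °C for 24 h, detected with anti-human AF647 secondary, geometric mean fluorescence of live cells versus antibody concentration, fitted as specific binding with Hill slope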
# Experimental: as §3
# [10] = target: T3, human glypican-3 (GPC3); test: flow cytometry on CHO-S cells transfected with human GPC3;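 note: antibody binding to transiently transfected CHO-S cells after 24 hours at 4 °C, read as geometric mean fluorescence of anti-human AF647 in live cells, fitted against antibody concentration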
# Experimental: (§4) Briefly, CHO—S cells were transiently transfected for −24 hours with a pTT5-based expression plasmid encoding human GPC3 or cynomolgus monkey GPC3, 0.5 μg DNA per 1 million cells, using the Neon™ Transfection System (Thermo Fisher Scientific Corp., Waltham, MA), to transiently express human or cynomolgus monkey GPC3. Cells transfected with GFP were used as negative transfection controls. Following transfection, cells were seeded at 50,000 cells/well in V-bottom 96-well plates and treated with antibody for 24 hours at 4° C. to prevent internalization. […] Following incubation and washing, fluorescence was detected by flow cytometry on a BD LSRFortessa™ Cell Analyzer (BD Biosciences, Franklin Lake, NJ) with 1,000 minimum events collected per well. AF647/APC-A GeoMean (fluorescence signal geometric mean, proportional to anti-Human AF647 binding) in live cell population was plotted against antibody concentration using GraphPad Prism Version 9 (GraphPad Software, San Diego, CA). The Bmax and Kd values were derived from the “Specific binding with Hill slope” nonlinear regression curve fit in GraphPad Prism Version 9.
# [11] = target: T4, cynomolgus monkey glypican-3 (GPC3) (cynomolgus monkey, UniProt A5A6P7 25-554 (Pan troglodytes entry)); test: flow cytometry on CHO-S cells transfected with cynomolgus GPC3;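 note: antibodies incubated 24 h at 4 °C with transiently transfected cells, binding read as AF647 geometric mean fluorescence of live cells, GFP-transfected cells as negative control, Hill-slope specific-binding fit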
# T4 construct: Transiently expressed on CHO-S cells; also called cynoGPC3; CynoGPC3-CHO
# Experimental: as §4
# [12] = target: T3, human glypican-3 (GPC3); test: flow cytometry on JHH-5 cells; antibody in mouse plasma, day 0
# Experimental: (§5) For binding cells were seeded at 50,000 cells/well in V-bottom 96-well plates and treated with antibody for 24 hours at 4° C. to prevent internalization. […] Following incubation and washing, fluorescence was detected by flow cytometry on a BD LSRFortessa™ Cell Analyzer (BD Biosciences, Franklin Lake, NJ) with 1,000 minimum events collected per well. AF647/APC-A GeoMean (fluorescence signal geometric mean, proportional to anti-Human AF647 binding) in live cell population was plotted against antibody concentration using GraphPad Prism Version 9 (GraphPad Software, San Diego, CA). The Bmax, Curve Hill Slope (h) and Kd values were derived from the “Specific binding with Hill slope” nonlinear regression curve fit in GraphPad Prism Version 9.
# [13] = target: T3, human glypican-3 (GPC3); test: flow cytometry on JHH-7 cells; antibody in mouse plasma, day 0
# Experimental: as §5
# Throughout, for JHH-5 Internalization (MFI), Day 0 in mouse plasma: test concentration or dose not given here.
# Throughout, for JHH-5 Internalization (MFI), Day 14 in mouse plasma: test concentration or dose not given here.
# Throughout, for JHH-5 Internalization (MFI): test concentration or dose not given here.
# Throughout, for JHH-7 Internalization (MFI), Day 0 in mouse plasma: test concentration or dose not given here.
# Throughout, for JHH-7 Internalization (MFI), Day 14 in mouse plasma: test concentration or dose not given here.
# Throughout, for JHH-7 Internalization (MFI): test concentration or dose not given here.
Binder,Kd Fold difference (hu/cyno) [2] [fold],Avg % binding huGPC3 (RU observed/theoretical) [3] [%],Kd [4] [nM],Kd [5] [nM],other results
B1,–,–,–,–,"EC50 (nM), cytotoxicity, 2D monolayer, HepG2 (High) [1]: 0.09 nM; EC50 (nM), cytotoxicity, 2D monolayer, Huh-7 (Mid) [1]: 0.01 nM; EC50 (nM), cytotoxicity, 2D monolayer, JHH-5 (Mid) [1]: 0.14 nM; EC50 (nM), cytotoxicity, 2D monolayer, JHH-7 (High) [1]: 1 nM"
B2,–,–,–,–,"EC50 (nM), cytotoxicity, 2D monolayer, HepG2 (High) [1]: 0.03 nM; EC50 (nM), cytotoxicity, 2D monolayer, Huh-6 (Mid) [1]: 0.12 nM; EC50 (nM), cytotoxicity, 2D monolayer, Huh-7 (Mid) [1]: 0.01 nM; EC50 (nM), cytotoxicity, 2D monolayer, JHH-5 (Mid) [1]: 0.08 nM; EC50 (nM), cytotoxicity, 2D monolayer, JHH-7 (High) [1]: 0.02 nM"
B3,–,–,–,–,"EC50 (nM), cytotoxicity, 2D monolayer, HepG2 (High) [1]: 0.03 nM; EC50 (nM), cytotoxicity, 2D monolayer, Huh-6 (Mid) [1]: 0.12 nM; EC50 (nM), cytotoxicity, 2D monolayer, Huh-7 (Mid) [1]: 0.03 nM; EC50 (nM), cytotoxicity, 2D monolayer, JHH-5 (Mid) [1]: 0.11 nM; EC50 (nM), cytotoxicity, 2D monolayer, JHH-7 (High) [1]: 0.03 nM"
B4,2.1,15.6,20.1,9.57,–
B5,1.21,21.3,19.9,16.4,–
B6,1.53,43.6,11.3,7.43,–
B7,1.48,46.3,10.6,7.18,–
B8,1.27,17.5,22.5,17.8,–
B9,1.56,42.8,10.3,6.58,–
B10,1.13,23.4,21,18.5,–
B11,1.55,42,11.9,7.67,–
B12,1.61,42.5,12.5,7.78,–
B13,1.24,18,19.5,15.8,–
B14,1.77,17.4,18.3,10.4,–
B15,1.3,15.5,18.2,14,–
B16,1.82,15.8,20.1,11.1,–
B17,1.12,16.1,17.5,15.7,–
B18,1.37,14.9,22.7,16.6,–
B19,1.58,42.2,11.5,7.29,–
B20,–,–,–,–,"JHH-5 Internalization (MFI) [6]: 10500 MFI; JHH-7 Internalization (MFI) [6]: 7260 MFI; JHH-5 Internalization (MFI), Day 0 in mouse plasma [7]: 12200 MFI; JHH-5 Internalization (MFI), Day 14 in mouse plasma [7]: 7250 MFI; JHH-7 Internalization (MFI), Day 0 in mouse plasma [7]: 152 MFI; JHH-7 Internalization (MFI), Day 14 in mouse plasma [7]: 76 MFI; Bmax (MFI) [8]: 4670 MFI; Kd [8]: 0.12 nM; Bmax (MFI) [9]: 14100 MFI; Kd [9]: 0.42 nM; Bmax (MFI) [10]: 2530 MFI; Kd [10]: 0.14 nM; Bmax (MFI) [11]: 3150 MFI; Kd [11]: 0.19 nM; Bmax (MFI) [12]: 5130 MFI; Kd [12]: 0.14 nM; Bmax (MFI) [13]: 9770 MFI; Kd [13]: 0.39 nM"

# From patent US20250295799A1 (Zymeworks, published 2025)
